The record followed here is publication PMC6171237, “UBN1/2 of HIRA complex is responsible for recognition and deposition of H3.3 at cis-regulatory elements of genes in mouse ES cells” (BMC Biology, 2018).

The target in the assay is T1, (H3.3-H4)2 tetramers (UniProt P84243 1-136; P62805 1-103).
T1 construct: Histone H3.3; Histone H4; also called H3.3-H4 tetramer; copies: 2 + 2
The assay is described as follows: pull-down; GST fusion proteins immobilized on Glutathione Sepharose 4 Fast Flow, histone tetramers added in 20 mM HEPES-HCl pH 7.9, 500 mM NaCl, 1 mM EDTA, 5 mM 2-mercaptoethanol, 0.1% Nonidet P-40, overnight at 4 °C; Coomassie staining. Particulars: both partners purified.

B1: GST-UBN2 (109–291) (domain or fragment)
chain: PRESASRAEQPPRPPRETVRLELVLKDPTDESCVEFSYPELLLCGEQRKKLIHTEDPFNDEHQERQEVEMLAKKFEMKYGGKPRKHRKDRLQDLIDIGFGYDETDPFIDNSEAYDELVPASLTTKYGGFYINTGTLQFRQASDTEEDDITDNQKHKPPKVPKIKEDDIEMKKRKRKEEGEKEK
notes: UBN2, human, residues 109-291, contains the HRD domain; also called UBN2 (aa109-291); GST-UBN2-(aa109-291); source: E. coli, purified by GST tag
For the molecule B1, the binding result was “binds”.

B2: GST-UBN1 (1–213) (domain or fragment)
chain: MSEPHRVQFTSLPGSLNPAFLKKSRKEEAGAGEQHQDCEPAAAAVRITLTLFEPDHKRCPEFFYPELVKNIRGKVKGLQPGDKKKDLSDPFNDEEKERHKVEALARKFEEKYGGKKRRKDRIQDLIDMGYGYDESDSFIDNSEAYDELVPASLTTKYGGFYINSGTLQFRQASESEDDFIKEKKKKSPKKRKLKEGGEKIKKKKKDDTYDKEK
notes: source: E. coli, purified by GST tag
As for B2, the binding result is “binds”.
